Measured values reported in paper PMC4589789, “Anti-interleukin-6 therapy through application of a monogenic protein inhibitor via gene delivery” (Scientific Reports, 2015).

What was measured:
[1] = biological target: murine IL-6 (mouse) (UniProt P08505)
[2] = biological target: murine IL-6 (mouse) (UniProt P08505); remark: listed apart in the source
[3] = biological target: the molecule itself; assay: SDS-PAGE under non-reducing and reducing conditions; purified mIL-6-RFP-Fc on 7.5% SDS/PAGE, Coomassie staining and Western blotting; disulfide-linked dimer versus monomer

Chain of murine IL-6 (mouse) (P08505 25-211): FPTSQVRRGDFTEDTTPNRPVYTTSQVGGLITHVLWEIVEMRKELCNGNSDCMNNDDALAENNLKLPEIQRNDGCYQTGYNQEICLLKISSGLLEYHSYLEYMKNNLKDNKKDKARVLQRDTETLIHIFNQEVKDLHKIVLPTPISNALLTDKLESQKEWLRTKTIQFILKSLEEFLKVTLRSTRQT

IC50 of inhibition of IL-6 (37 pM)-dependent proliferation of Ba/F3-mgp130/mIL-6Rα cells, serial 2-fold dilutions from 3.9 nM, XTT assay after 60 h [1]: 3.3e-05 μM
attenuation of IL-6 (100 ng i.v.)-induced ERK1/2 phosphorylation in mouse kidney after pretreatment with mIL-6-RFP-Fc i.p. for 45 min (4, 12 or 40 μg; value for 40 μg, 70× molar excess) [2]: 50%
attenuation of IL-6 (100 ng i.v.)-induced ERK1/2 phosphorylation in mouse liver after pretreatment with mIL-6-RFP-Fc i.p. for 45 min (4, 12 or 40 μg; value for 40 μg, 70× molar excess) [2]: 63%
attenuation of IL-6 (100 ng i.v.)-induced STAT3 phosphorylation in mouse kidney after pretreatment with mIL-6-RFP-Fc i.p. for 45 min (4, 12 or 40 μg; value for 40 μg, 70× molar excess) [2]: 80%
attenuation of IL-6 (100 ng i.v.)-induced STAT3 phosphorylation in mouse liver after pretreatment with mIL-6-RFP-Fc i.p. for 45 min (4, 12 or 40 μg; value for 40 μg, 70× molar excess) [2]: 12%
B1: mIL-6-RFP-Fc (murine IL-6 receptor fusion protein with engineered mIgG2a Fc-fragment and 3V5-3HA tag) (Fc fusion)
chain: QLLEPCGYIYPEFPVVQRGSNFTAICVLKEACLQHYYVNASYIVWKTNHAAVPREQVTVINRTTSSVTFTDVVLPSVQLTCNILSFGQIEQNVYGVTMLSGFPPDKPTNLTCIVNEGKNMLCQWDPGRETYLETNYTLKSEWATEKFPDCQSKHGTSCMVSYMPTYYVNIEVWVEAENALGKVSSESINFDPVDKVKPTPPYNLSVTNSEELSSILKLSWVSSGLGGLLDLKSDIQYRTKDASTWIQVPLEDTMSPRTSFTVQDLKPFTEYVFRIRSIKDSGKGYWSDWSEEASGTTYEDLVLGSCRALEVANGTVTSLPGATVTLICPGKEAAGNVTIHWVYSGSQNREWTTTGNTLVLRDVQLSDTGDYLCSLNDHLVGTVPLLVDVPPEEPKLSCFRKNPLVNAICEWRPSSTPSPTTKAVLFAKKINTTNGKSDFQVPCQYSQQLKSFSCQVEILEGDKVYHIVSLCVANSVGSKSSHNEAFHSLKMVQPDPPANLVVSAIPGRPRWLKVSWQHPETWDPSYYLLQFQLRYRPVWSKEFTVLLLPVAQYQCVIHDALRGVKHVVQVRGKEELDLGQWSEWSPEVTGTPWIPRGPTIKPCPPCKCPAPNLEGGPSVFIFPPKIKDVLMISLSPIVTCVVVDVSEDDPDVQISWFVNNVEVHTAQTQTHREDYNSTLRVVSALPIQHQDWMSGKAFACAVNNKDLPAPIERTISKPKGSVRAPQVYVLPPPEEEMTKKQVTLTCMVTDFMPEDIYVEWTNNGKTELNYKNTEPVLDSDGSYFMYSKLRVEKKNWVERNSYSCSVVHEGLHNHHTTKSFSRTPGK
stoichiometry N [3]: 2
